Data on 83 variants can be found in the RNAGym collection of RNA variant scans (doi:10.1073/pnas.2313332121).

B1: TPR 5TU (parent)
chain: GGAUCUUCUCGAUCUAACAAAAAAGACAAAUCUGCCACAAAGCUUGAGAGCAUCUUCGGAUGCAGAGGCGGCAGCCUUCGGUGGCGCGAUAGCGCCAACGUUCUCAACUAUGACACGCAAAACGCGUGCUCCGUUGAAUGGAGUUUAUCAUG

This sample holds only a part of the variants without activity. A value given as a limit tells only on which side of the number the result lay.

The variants in this series derive from B1. The series is described as follows: polymerase ribozyme fitness, log enrichment relative to wild type (log ratio); higher = more active; in vitro selection for triplet polymerase activity. In short, it runs like this:
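A single round of triplicate in vitro selection, including frozen incubation at −7 °C, was applied to PCR-built, transcribed mutant libraries of each subunit of a heterodimeric triplet polymerase ribozyme. Illumina sequencing of input and output libraries retained genotypes with ≥10 input reads and ≥1 read per output. Fitness is the base-2 logarithm of genotype enrichment divided by wild-type enrichment, from inverse-variance-weighted replicate averages.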
Take A19C U31A C38A G80A A98U: the “polymerase ribozyme fitness (log ratio)” value was -0.863. As for U56A A97U, the figure is -1.47; as for A16U C69A U145G, -3.75; as for C85U C125G G136A, -0.203.

With U6C U31C C57A C96G, the “polymerase ribozyme fitness (log ratio)” value was -1.1. As to A39C A60G C87U A147C, the “polymerase ribozyme fitness (log ratio)” value is -3.78. Under C85U U104G stands -0.929. Under C14A C18U A22U A26U U82C C95U U145G U148C C149U stands at most -4.2. As for G67C G80C G92A C103A C118G G133A, the figure is at most -4.2. Consider U13C A37G G126C, for which the “polymerase ribozyme fitness (log ratio)” value was -1.85. Under A16C C51U G84U U135A stands -3.41; under U31C G84A, 0.831; under U6G A28U, -3.76.

For the variant A19U G86C, the “polymerase ribozyme fitness (log ratio)” value was -2.58. Under G84A C85U G143A stands -1.63.

G50A A107U: the “polymerase ribozyme fitness (log ratio)” value is -4.13. As for G50U U104G G143U, the figure is -3.47; as for U61A A64G G140C U144C, at most -4.2; as for U13A A91G C114U A120G, -4.09.

U31A G48C C85A: the “polymerase ribozyme fitness (log ratio)” value is -2.98. As for A22U G58A A60C U111A, the figure is at most -4.2. Under C79G U101G U109G U135C U148A stands at most -4.2; under U33G G59A G94U, -3.39.

Regarding A73G G126U, the “polymerase ribozyme fitness (log ratio)” value is -0.214. As for A16C G59C, the figure is -0.987; as for U9A U31G U53G G88A G126U A150C, at most -4.2; as for U61G C85A, -2.29.

Consider C85A G117C, for which the “polymerase ribozyme fitness (log ratio)” value was -1.3. As for G65C G68A G83A A115U G140A, the figure is at most -4.2; as for A47G U55A A91G, -2.78; as for A24C U61A C63G G81A G94A, at most -4.2. As for C14G C87U G141A, the figure is -2.56. For the variant G25C G48C A66G C93A, the “polymerase ribozyme fitness (log ratio)” value is at most -4.2.

Take A17G A49U G83U: the “polymerase ribozyme fitness (log ratio)” value is -3.31.

In the case of U15C C51A G86U, the “polymerase ribozyme fitness (log ratio)” value was -1.6.

A40C U44A G59A C93A U109A: the “polymerase ribozyme fitness (log ratio)” value was at most -4.2. With G11A A24G A60U U78C G92A G100A, the “polymerase ribozyme fitness (log ratio)” value is at most -4.2.

Take U33A U102C A107U C125A: the “polymerase ribozyme fitness (log ratio)” value is at most -4.2.

As to C18G C85U U101C, the “polymerase ribozyme fitness (log ratio)” value was -0.76.

As to A30G G48U C76G C96U A97C U134G, the “polymerase ribozyme fitness (log ratio)” value is at most -4.2.

As for C27U G50C C114G, the “polymerase ribozyme fitness (log ratio)” value was at most -4.2. Under G50A G58C C99A stands at most -4.2; under U7G C85U, -2.79.

For the variant U31G C123U, the “polymerase ribozyme fitness (log ratio)” value came out at 0.732. A12G A21C C32G G50U C125G: the “polymerase ribozyme fitness (log ratio)” value was at most -4.2. As for A29U U53A U56A A64U U77C A98G C103G U148C, the figure is at most -4.2. On to A29C G58C, for which the “polymerase ribozyme fitness (log ratio)” value is -3.97. On to C57U C85A G100U A138G, for which the “polymerase ribozyme fitness (log ratio)” value was at most -4.2. Under G46C G50U G68A C76A C85U U130G stands at most -4.2. Under A16U G25C A52C C96U stands -4.11; under A24C G42U U44G U61A G80C A110U, at most -4.2; under U15C A22G A47C U55A G88C U139C, at most -4.2. As for C36U A39U, the figure is -2.71. As for C79G A98U C99U G133U, the “polymerase ribozyme fitness (log ratio)” value was at most -4.2. With A24C U55A C57U G58U A66G G68C C85A C149G, the “polymerase ribozyme fitness (log ratio)” value is at most -4.2.

For U104G U109A G133C, the “polymerase ribozyme fitness (log ratio)” value is -2.78. Turning to C51U U56A C57A C105G A122G, the “polymerase ribozyme fitness (log ratio)” value is -2.19. For the variant G58A A121C, the “polymerase ribozyme fitness (log ratio)” value was 0.557. Under C5A C38U G59A C87G C103A A121U G126A U146C stands at most -4.2; under C95U C96A C99U C108U, -4.11. Consider U7C G46C U56A U77C G81A G86U G100A G133U, for which the “polymerase ribozyme fitness (log ratio)” value was at most -4.2. As for A24U G58A A66U C87A U90G U146C, the figure is at most -4.2; as for G50A G59A G133U, at most -4.2; as for A24C C27G G94A A106G C108U, -3.93. As for C57A G58U, the figure is 0.207; as for U104A, 0.0691; as for A52G A150G, -2.55. C95U C105G: the “polymerase ribozyme fitness (log ratio)” value is -0.337. As for A107C C118U, the figure is at most -4.2; as for U53G C87U A113U C116A G140U, at most -4.2. In the case of U55A U77C C105A A107U U127G A137C, the “polymerase ribozyme fitness (log ratio)” value is at most -4.2. Under G100A G126A stands -4.02; under G68U C99U G117C G143A, at most -4.2; under U55A C75U, 0.238.

Regarding U6G G59C C85U G92U U127A, the “polymerase ribozyme fitness (log ratio)” value is at most -4.2. As for C38A U55A G94U C99G, the figure is -3.88; as for G83C G136C, -4.09; as for C14U C27G A37U A39G A66C U77A U78G C85U A89U C95G, at most -4.2. Under U7G A21C C32A A49C U53C C69U A142C stands at most -4.2; under A21U G34A G141A C149G, at most -4.2. Under A26C C32G C57G stands at most -4.2. For the variant U55G C105U G141U U145C U146G, the “polymerase ribozyme fitness (log ratio)” value is -3.09.

On to C43G C54A U55A A73G G74C G124C, for which the “polymerase ribozyme fitness (log ratio)” value was at most -4.2.
